What was measured:
[1] = molecular target: Human IL-10Rβ extracellular domain (20-220), biotinylated (human) (UniProt Q08334); experiment: SPR; IL-10 clone 5.1 alone, immobilized; details: ligand
[2] = molecular target: Human IL-10Rβ extracellular domain (20-220), biotinylated (human) (UniProt Q08334); experiment: SPR; clone 5.1 immobilized, pre-bound with saturating soluble IL-10Rα; details: ligand
[3] = molecular target: Human IL-10Rβ on cells (Daudi, Jurkat, YT-1, THP-1 cell lines; primary human PBMC populations) (human) (UniProt Q08334); experiment: cell-based or functional assay
Chain of Human IL-10Rβ on cells (Daudi, Jurkat, YT-1, THP-1 cell lines; primary human PBMC populations) (human) (Q08334 20-325): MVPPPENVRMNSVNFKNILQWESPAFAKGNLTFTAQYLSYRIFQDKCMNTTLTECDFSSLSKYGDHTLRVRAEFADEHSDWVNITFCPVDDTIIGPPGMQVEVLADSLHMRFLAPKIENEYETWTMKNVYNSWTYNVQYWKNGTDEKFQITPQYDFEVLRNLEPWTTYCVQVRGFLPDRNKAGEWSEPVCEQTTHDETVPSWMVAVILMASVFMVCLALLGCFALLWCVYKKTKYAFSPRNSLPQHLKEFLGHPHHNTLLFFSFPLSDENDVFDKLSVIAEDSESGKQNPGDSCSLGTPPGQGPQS

Chain of Human IL-10Rβ extracellular domain (20-220), biotinylated (human) (Q08334 other isoform, or with tags, fused parts or gaps): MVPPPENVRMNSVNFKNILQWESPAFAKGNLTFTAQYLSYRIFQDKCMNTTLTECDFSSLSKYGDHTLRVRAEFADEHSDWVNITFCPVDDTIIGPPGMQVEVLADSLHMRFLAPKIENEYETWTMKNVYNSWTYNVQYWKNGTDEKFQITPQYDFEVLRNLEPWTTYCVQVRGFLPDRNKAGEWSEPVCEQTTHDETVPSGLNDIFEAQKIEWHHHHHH

Kd [1] [nM] | Kd [2] [nM] | phospho-STAT3 activity in YT-1 cells [3] [%] | STAT3 activation relative to WT IL-10 in primary NK cells, B cells and T cells [3] [%] | Substance
70 | 30 |  |  | Affinity matured IL-10 clone 5.1 (Super-10), soluble (from UniProt P22301 19-178)
 |  | 50 |  | IL-10 D25K variant (from UniProt P22301 19-178) (ligand)
 |  | 50 | 35 to 50 | IL-10 D25A/E96A variant (10-DE) (from UniProt P22301 19-178) (ligand)
